Results on 5 molecules are retold here after paper PMC12594925 (Nature Communications, 2025).

In data set [1] the target is MOR and DOR in MD-cells (Rattus norvegicus, UniProt P33535). As to the kind of experiment: Ca2+ mobilization via Gqi5. The class given is cell-based. As to conditions: increase greater with DAMGO than morphine.
Data set [2] addresses MOR in M-cells (Rattus norvegicus, UniProt P33535). The experiment in a line: Ca2+ mobilization via Gqi5. In kind it is cell-based. As to conditions: [FMax-Fb]/Fb of Fluo-4.
In data set [3] the target is DOR in D-cells (Rattus norvegicus, UniProt P33533).
DOR in D-cells, sequence (P33533 whole entry): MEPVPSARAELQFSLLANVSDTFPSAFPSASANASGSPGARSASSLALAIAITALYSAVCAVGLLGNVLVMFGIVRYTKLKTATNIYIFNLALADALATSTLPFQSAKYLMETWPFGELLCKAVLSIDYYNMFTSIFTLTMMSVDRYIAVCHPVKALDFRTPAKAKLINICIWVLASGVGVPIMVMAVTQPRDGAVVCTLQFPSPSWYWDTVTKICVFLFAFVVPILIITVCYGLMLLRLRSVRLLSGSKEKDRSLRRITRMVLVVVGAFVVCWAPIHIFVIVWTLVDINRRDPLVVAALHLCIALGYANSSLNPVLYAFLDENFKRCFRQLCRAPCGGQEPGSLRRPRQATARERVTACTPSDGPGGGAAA
The target of data set [4] is KOR in K-cells (Rattus norvegicus, UniProt P34975). The experiment in a line: Ca2+ mobilization via Gqi5. The class given is cell-based. In general terms: A change in cytosolic calcium serves as a functional read-out for many receptors and channels.
KOR in K-cells, sequence (P34975 whole entry): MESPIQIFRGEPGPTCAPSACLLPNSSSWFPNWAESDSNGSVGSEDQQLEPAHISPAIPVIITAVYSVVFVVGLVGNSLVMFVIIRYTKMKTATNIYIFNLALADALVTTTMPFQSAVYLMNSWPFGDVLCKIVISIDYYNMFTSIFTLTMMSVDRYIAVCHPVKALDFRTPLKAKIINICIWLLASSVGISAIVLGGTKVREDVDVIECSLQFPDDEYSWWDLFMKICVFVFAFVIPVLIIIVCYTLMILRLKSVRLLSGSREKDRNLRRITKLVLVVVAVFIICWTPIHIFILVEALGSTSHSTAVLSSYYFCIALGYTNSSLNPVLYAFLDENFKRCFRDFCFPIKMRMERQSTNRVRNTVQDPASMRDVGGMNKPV
The target in data set [5] is DOR-MOR (Rattus norvegicus, UniProt P33535). The experiment in a line: cAMPinG1 cAMP inhibition assay, cells expressing DOR-MOR. In kind it is cell-based. To be noted: 7 µM forskolin then 50 nM DAMGO; MOR and DOR at 5-10 fluorescent spots/µm2.
DOR-MOR, sequence (P33535 whole entry): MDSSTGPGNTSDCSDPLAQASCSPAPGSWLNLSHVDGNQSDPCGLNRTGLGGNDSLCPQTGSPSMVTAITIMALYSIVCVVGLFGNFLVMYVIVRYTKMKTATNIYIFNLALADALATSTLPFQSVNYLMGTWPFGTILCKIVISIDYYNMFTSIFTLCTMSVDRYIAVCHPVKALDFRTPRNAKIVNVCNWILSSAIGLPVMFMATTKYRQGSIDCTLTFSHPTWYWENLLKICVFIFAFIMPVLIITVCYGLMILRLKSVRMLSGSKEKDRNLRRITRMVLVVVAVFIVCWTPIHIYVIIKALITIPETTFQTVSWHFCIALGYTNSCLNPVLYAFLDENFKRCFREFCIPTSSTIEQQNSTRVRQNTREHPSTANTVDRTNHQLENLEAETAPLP
In data set [6] the target is MOR-MOR (MM) homodimer (Rattus norvegicus, UniProt P33535). As to conditions: cited from earlier work.
MOR-MOR (MM) homodimer, sequence (P33535 whole entry): as above
Data set [7] deals with DOR-KOR (DK) heterodimer (Rattus norvegicus, UniProt P33533+P34975). As to the kind of experiment: DK colocalization index, two-color single-molecule TIRF imaging. The class given is binding.
DOR-KOR (DK) heterodimer, sequence (P33533 whole entry): as the sequence (P33533 whole entry) above
DOR-KOR (DK) heterodimer, sequence (P34975 whole entry): as the sequence (P34975 whole entry) above
Data set [8] concerns the target DOR-MOR (DM) heterodimer (Rattus norvegicus, UniProt P33533+P33535). The class given is binding. To be noted: for Effect on DM heterodimerization: DOR and MOR at 0.5-1.0 spots/µm2.
Data set [9] concerns the target DOR (Rattus norvegicus, UniProt P33533). The experiment in a line: Colocalization of expressed TM peptides with WT-DOR. The class given is binding. To be noted: all molecules expressed at 0.5–1.0 fluorescent spots/µm2.
The target of data set [10] is MOR (Rattus norvegicus, UniProt P33535). The experiment in a line: Colocalization of expressed TM peptides with WT-MOR. As to conditions: both expressed at 0.5–1.0 fluorescent spots/µm2.
MOR, sequence (P33535 whole entry): as the sequence (P33535 whole entry) above

DOR-MOR (DM) heterodimer, sequence (P33533 whole entry): as the sequence (P33533 whole entry) above
DOR-MOR (DM) heterodimer, sequence (P33535 whole entry): as the sequence (P33535 whole entry) above
DOR, sequence (P33533 whole entry): as the sequence (P33533 whole entry) above
MOR in M-cells, sequence (P33535 whole entry): as the sequence (P33535 whole entry) above
MOR and DOR in MD-cells, sequence (P33535 whole entry): as above

With `C[C@@H](NC(=O)[C@@H](N)Cc1ccc(O)cc1)C(=O)NCC(=O)N(C)[C@@H](Cc1ccccc1)C(=O)NCCO` [DAMGO], in data set [1], the “Ca2+ response to M-agonist compared to M-cells” value was “enhanced Ca²⁺ responses”. The “Ca2+ signal induced by M-agonist” value in [2] is “induced comparable Ca²⁺ signals”. For the same molecule, the “Ca2+ response to M-agonist” value in data set [3] and in data set [4] was “No response was evident” throughout. Also, the “DAMGO-induced cAMP concentration decrease via Gi” value in data set [5] is reported as “greater when DOR was co-expressed”. For the same molecule, the “Effect on MM homodimerization and MM dimer lifetime” value in data set [6] was “enhanced MM homodimerization and slightly elongated the MM dimer lifetime”.

As for “EL3-domain peptide of MOR: peptide with the MOR EL3 sequence (IIKALVTIPETTFQTV; UniProt P35372 303-318, looked up, fragment)”, the “Blocking of DK heterodimerization (DK colocalization index)” value in data set [7] is reported as “but not that of MOR, block DK heterodimerization”. For the same molecule, the “Blocking of DM heterodimers” value in data set [8] (soluble EL3-domain peptides (Supplementary Fig. 2b)) is “failed to block DM heterodimers”.

Consider “Nterm-TM1^MOR: TM1^MOR construct also containing amino acids 53-70 before the TM1 domain (GGRDSLCPPTGSPSMITAITIMALYSIVCVVGLFGNFLVMYVIVRYT; UniProt P35372 53-99, looked up, fragment)”, for which the “Colocalization with WT-DOR” value in data set [9] is listed as “colocalized with DOR, like the full-length MOR”. Further, in [8], the “Effect on DM heterodimerization” value is “suppressed DM heterodimerization in an expression level-dependent manner”.

“TM1^DOR: DOR TM1 peptide expressed in the PM (ITALYSAVCAVGLLGNVLVMFGIVRYTKM; UniProt P41143 52-80, looked up, fragment)”: in data set [10], the “Colocalization with WT-MOR” value is on record as “moderately colocalized with MOR”.

As to “TM1^MOR: membrane-integral peptide, MOR TM1 (amino acids 71-99), expressed in the PM (ITIMALYSIVCVVGLFGNFLVMYVIVRYT; UniProt P35372 71-99, looked up, fragment)”, the “Colocalization with WT-DOR” value in data set [9] is given as “colocalized with DOR, like the full-length MOR”. Besides, the “Effect on DM heterodimerization” value in [8] is given as “suppressed DM heterodimerization in an expression level-dependent manner”.
